One protein from article PMC6105217, “Modification of translation factor aIF5A from Sulfolobus solfataricus” (Extremophiles, 2018) can be followed below.

The data set concerns the molecule itself. The data set can be described thus: SEC-MALS; Superdex S200 10/300 GL increase, 20 mM Tris-HCl pH 7.5, 150 mM NaCl, 25 °C; protein pre-incubated at 65 °C for 10 min, 100 µl injected at 1.5 mg/ml. In general terms: Size exclusion chromatography separates by hydrodynamic size, large species first.

B1: recombinant aDHS-C-His (enzyme, Sulfolobus solfataricus, UniProt Q97ZF1 1-312, looked up)
chain: MINREDLLKNPVEDITLSDLKKYNDIVSVFDKIYGFSSEGIVNGSKILKEMIKNADLRFLSFTANLVSTGLRGLFADLIKKGYFNIVVTTGGTIDHDLARSFGGVYYKGSFDIDDTMLKDLEIHRLGNVLVPFESYGKVIEDVVRKFLPEITKDRKEISAYELLWEFGKRITDSNSILRAAYDKNVPIIVPGILDGSFGTNLFIQSQFLNFRINLFEDMRLIKDLIFSSKKSGALIIGGGISKHHTIWWNQFKDGLNYAIYITTAQEYDGSLSGAKPREAISWNKIRPDAKHVTIYGDATIIVPILAASLLS
notes: deoxyhypusine synthase, Sulfolobus solfataricus P2, ORF SSO0967, amplified by PCR from genomic DNA; source: E. coli BL21 (DE3) (pQE-70-DHS-C-His), purified (Ni-NTA); not shown: His-tag, C-terminal, kept
The term stoichiometry N denotes a count of units in the complex or per binding partner. With B1, the “stoichiometry N” value turned out to be 4.
